B1: transaldolase (YwjH) (enzyme, B. subtilis 168, UniProt P19669 1-212, looked up)
chain: MLFFVDTANIDEIREANELGILAGVTTNPSLVAKEANVSFHDRLREITDVVKGSVSAEVISLKAEEMIEEGKELAKIAPNITVKIPMTSDGLKAVRALTDLGIKTNVTLIFNANQALLAARAGATYVSPFLGRLDDIGHNGLDLISEVKQIFDIHGLDTQIIAASIRHPQHVTEAALRGAHIGTMPLKVIHALTKHPLTDKGIEQFLADWNK
notes: transaldolase (YwjH), B. subtilis; gene amplified from B. subtilis 168 chromosomal DNA; source: B. subtilis 1A751, overexpressed from a pMAR-derived plasmid; cytoplasmic fraction and culture supernatant, not purified
B2: superoxide dismutase (SodA) (enzyme, B. subtilis 168, UniProt P54375 1-202, looked up)
chain: MAYELPELPYAYDALEPHIDKETMTIHHTKHHNTYVTNLNKAVEGNTALANKSVEELVADLDSVPENIRTAVRNNGGGHANHKLFWTLLSPNGGGEPTGALAEEINSVFGSFDKFKEQFAAAAAGRFGSGWAWLVVNNGKLEITSTPNQDSPLSEGKTPILGLDVWEHAYYLNYQNRRPDYISAFWNVVNWDEVARLYSEAK
notes: superoxide dismutase (SodA), B. subtilis; gene amplified from B. subtilis 168 chromosomal DNA; source: B. subtilis 1A751, overexpressed from a pMAR-derived plasmid; cytoplasmic fraction and culture supernatant, not purified
B3: molecular chaperone (GroEL) (natural protein, B. subtilis 168, UniProt P28598 1-544, looked up)
chain: MAKEIKFSEEARRAMLRGVDALADAVKVTLGPKGRNVVLEKKFGSPLITNDGVTIAKEIELEDAFENMGAKLVAEVASKTNDVAGDGTTTATVLAQAMIREGLKNVTAGANPVGVRKGMEQAVAVAIENLKEISKPIEGKESIAQVAAISAADEEVGSLIAEAMERVGNDGVITIEESKGFTTELEVVEGMQFDRGYASPYMVTDSDKMEAVLDNPYILITDKKITNIQEILPVLEQVVQQGKPLLLIAEDVEGEALATLVVNKLRGTFNAVAVKAPGFGDRRKAMLEDIAVLTGGEVITEDLGLDLKSTQIAQLGRASKVVVTKENTTIVEGAGETDKISARVTQIRAQVEETTSEFDREKLQERLAKLAGGVAVIKVGAATETELKERKLRIEDALNSTRAAVEEGIVSGGGTALVNVYNKVAAVEAEGDAQTGINIVLRALEEPIRQIAHNAGLEGSVIVERLKNEEIGVGFNAATGEWVNMIEKGIVDPTKVTRSALQNAASVAAMFLTTEAVVADKPEENGGGAGMPDMGGMGGMGGMM
notes: molecular chaperone GroEL, B. subtilis; gene amplified from B. subtilis 168 chromosomal DNA; source: B. subtilis 1A751, overexpressed from a pMAR-derived plasmid; cytoplasmic fraction and culture supernatant, not purified
B4: general stress protein (YceD) (natural protein, B. subtilis 168, UniProt P80875 1-193, looked up)
chain: MTISLAKGQKVDLTKTNPGLSKVVVGLGWDTNKYDGGHDFDLDSSVFLLDAAGKCASPNDFIFYNQLEGGNGSVVHSGDNLTGAGEGDDENVKVNLSAVPANIDKISFVITIHDAEARSQNFGQVSNAFVRIVNEETNEELIRYDLAEDFSIETAIIAGELYRHNGEWKFSAIGSGYQGGLARIATDYGLQVG
notes: general stress protein YceD, B. subtilis; gene amplified from B. subtilis 168 chromosomal DNA; Seen as monomer and as dimer; source: B. subtilis 1A751, overexpressed from a pMAR-derived plasmid; cytoplasmic fraction and culture supernatant, not purified
B5: arginase (RocF) (enzyme, B. subtilis 168, UniProt P39138 1-296, looked up)
chain: MDKTISVIGMPMDLGQARRGVDMGPSAIRYAHLIERLSDMGYTVEDLGDIPINREKIKNDEELKNLNSVLAGNEKLAQKVNKVIEEKKFPLVLGGDHSIAIGTLAGTAKHYDNLGVIWYDAHGDLNTLETSPSGNIHGMPLAVSLGIGHESLVNLEGYAPKIKPENVVIIGARSLDEGERKYIKESGMKVYTMHEIDRLGMTKVIEETLDYLSACDGVHLSLDLDGLDPNDAPGVGTPVVGGISYRESHLAMEMLYDAGIITSAEFVEVNPILDHKNKTGKTAVELVESLLGKKLL
notes: arginase (RocF), B. subtilis; gene amplified from B. subtilis 168 chromosomal DNA; source: B. subtilis 1A751, overexpressed from a pMAR-derived plasmid; cytoplasmic fraction and culture supernatant, not purified
B6: vegetative catalase (KatA) (enzyme, B. subtilis 168, UniProt P26901 1-483, looked up)
chain: MSSNKLTTSWGAPVGDNQNSMTAGSRGPTLIQDVHLLEKLAHFNRERVPERVVHAKGAGAHGYFEVTNDVTKYTKAAFLSEVGKRTPLFIRFSTVAGELGSADTVRDPRGFAVKFYTEEGNYDIVGNNTPVFFIRDAIKFPDFIHTQKRDPKTHLKNPTAVWDFWSLSPESLHQVTILMSDRGIPATLRHMHGFGSHTFKWTNAEGEGVWIKYHFKTEQGVKNLDVNTAAKIAGENPDYHTEDLFNAIENGDYPAWKLYVQIMPLEDANTYRFDPFDVTKVWSQKDYPLIEVGRMVLDRNPENYFAEVEQATFSPGTLVPGIDVSPDKMLQGRLFAYHDAHRYRVGANHQALPINRARNKVNNYQRDGQMRFDDNGGGSVYYEPNSFGGPKESPEDKQAAYPVQGIADSVSYDHYDHYTQAGDLYRLMSEDERTRLVENIVNAMKPVEKEEIKLRQIEHFYKADPEYGKRVAEGLGLPIKKDS
notes: vegetative catalase (KatA), B. subtilis; gene amplified from B. subtilis 168 chromosomal DNA; source: B. subtilis 1A751, overexpressed from a pMAR-derived plasmid; cytoplasmic fraction and culture supernatant, not purified
B7: 1-pyrroline-5-carboxylate dehydrogenase (YcgN) (enzyme, B. subtilis 168, UniProt P94391 1-515, looked up)
chain: MTTPYKHEPFTNFQDQNNVEAFKKALATVSEYLGKDYPLVINGERVETEAKIVSINPADKEEVVGRVSKASQEHAEQAIQAAAKAFEEWRYTSPEERAAVLFRAAAKVRRRKHEFSALLVKEAGKPWNEADADTAEAIDFMEYYARQMIELAKGKPVNSREGEKNQYVYTPTGVTVVIPPWNFLFAIMAGTTVAPIVTGNTVVLKPASATPVIAAKFVEVLEESGLPKGVVNFVPGSGAEVGDYLVDHPKTSLITFTGSREVGTRIFERAAKVQPGQQHLKRVIAEMGGKDTVVVDEDADIELAAQSIFTSAFGFAGQKCSAGSRAVVHEKVYDQVLERVIEITESKVTAKPDSADVYMGPVIDQGSYDKIMSYIEIGKQEGRLVSGGTGDDSKGYFIKPTIFADLDPKARLMQEEIFGPVVAFCKVSDFDEALEVANNTEYGLTGAVITNNRKHIERAKQEFHVGNLYFNRNCTGAIVGYHPFGGFKMSGTDSKAGGPDYLALHMQAKTISEMF
notes: 1-pyrroline-5-carboxylate dehydrogenase (YcgN), B. subtilis; gene amplified from B. subtilis 168 chromosomal DNA; source: B. subtilis 1A751, overexpressed from a pMAR-derived plasmid; cytoplasmic fraction and culture supernatant, not purified
B8: glyceraldehyde 3-phosphate dehydrogenase (GapA) (enzyme, B. subtilis 168, UniProt P09124 1-335, looked up)
chain: MAVKVGINGFGRIGRNVFRAALNNPEVEVVAVNDLTDANMLAHLLQYDSVHGKLDAEVSVDGNNLVVNGKTIEVSAERDPAKLSWGKQGVEIVVESTGFFTKRADAAKHLEAGAKKVIISAPANEEDITIVMGVNEDKYDAANHDVISNASCTTNCLAPFAKVLNDKFGIKRGMMTTVHSYTNDQQILDLPHKDYRRARAAAENIIPTSTGAAKAVSLVLPELKGKLNGGAMRVPTPNVSLVDLVAELNQEVTAEEVNAALKEAAEGDLKGILGYSEEPLVSGDYNGNKNSSTIDALSTMVMEGSMVKVISWYDNESGYSNRVVDLAAYIAKKGL
notes: glyceraldehyde 3-phosphate dehydrogenase (GapA), B. subtilis; gene amplified from B. subtilis 168 chromosomal DNA; source: B. subtilis 1A751, overexpressed from a pMAR-derived plasmid; cytoplasmic fraction and culture supernatant, not purified
B9: fructose 1,6-bisphosphate aldolase (FbaA) (enzyme, B. subtilis 168, UniProt P13243 1-285, looked up)
chain: MPLVSMTEMLNTAKEKGYAVGQFNLNNLEFTQAILQAAEEEKSPVILGVSEGAGRYMGGFKTVVAMVKALMEEYKVTVPVAIHLDHGSSFESCAKAIHAGFTSVMIDASHHPFEENVATTAKVVELAHFHGVSVEAELGTVGGQEDDVIAEGVIYADPKECQELVERTGIDCLAPALGSVHGPYKGEPNLGFKEMEEIGKSTGLPLVLHGGTGIPTADIKKSISLGTAKINVNTENQISSAKAVRETLAAKPDEYDPRKYLGPAREAIKETVIGKMREFGSSNQA
notes: fructose 1,6-bisphosphate aldolase (FbaA), B. subtilis; gene amplified from B. subtilis 168 chromosomal DNA; source: B. subtilis 1A751, overexpressed from a pMAR-derived plasmid; cytoplasmic fraction and culture supernatant, not purified
B10: pyruvate dehydrogenase PdhD (enzyme, B. subtilis 168, UniProt P21880 1-470, looked up)
chain: MVVGDFPIETDTLVIGAGPGGYVAAIRAAQLGQKVTVVEKATLGGVCLNVGCIPSKALINAGHRYENAKHSDDMGITAENVTVDFTKVQEWKASVVNKLTGGVAGLLKGNKVDVVKGEAYFVDSNSVRVMDENSAQTYTFKNAIIATGSRPIELPNFKYSERVLNSTGALALKEIPKKLVVIGGGYIGTELGTAYANFGTELVILEGGDEILPGFEKQMSSLVTRRLKKKGNVEIHTNAMAKGVEERPDGVTVTFEVKGEEKTVDADYVLITVGRRPNTDELGLEQVGIEMTDRGIVKTDKQCRTNVPNIYAIGDIIEGPPLAHKASYEGKIAAEAIAGEPAEIDYLGIPAVVFSEPELASVGYTEAQAKEEGLDIVAAKFPFAANGRALSLNETDGFMKLITRKEDGLVIGAQIAGASASDMISELSLAIEGGMTAEDIAMTIHAHPTLGEITMEAAEVAIGSPIHIVK
notes: pyruvate dehydrogenase PdhD, B. subtilis; gene amplified from B. subtilis 168 chromosomal DNA; source: B. subtilis 1A751, overexpressed from a pMAR-derived plasmid; cytoplasmic fraction and culture supernatant, not purified

Molecular target: the molecule itself
Test: native gel or EMSA; blue native PAGE (BN-PAGE) of the soluble cytoplasmic fraction and the culture supernatant of B. subtilis after 24 h of cultivation; non-reducing sample buffer, Coomassie blue; mass estimated within ±15%

Row | Protein | stoichiometry N
1 | B1 | 7
2 | B2 | 2
3 | B3 | 2
4 | B4 | 2
5 | B5 | 5
6 | B6 | 4
7 | B7 | 4
8 | B8 | 3
9 | B9 | 5
10 | B10 | 2
